± gives the standard deviation of the averaged measurements.
test system: Saccharomyces cerevisiae; test: protein stability index of tFT-peptide fusion (C-terminal peptide) (PSI (0-1 scale)); higher = more stable (slower turnover); conditions: genetic background: wild type; temperature: 30 C
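Further: PSI is a weighted mean of sequencing reads over stability bins, variants kept only with over 10 reads, mCherry proximal and sfGFP distal, peptide attached via GGGS linker.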

Sequence | protein stability index
SLGFMALFYLPL | 0.649 ± 0.016
VRRTRGGLRGWS | 0.6987 ± 0.0053
APRLIALPPPTA | 0.711 ± 0.11
FSRRQLLCLPHP | 0.677 ± 0.0083
YILLGEFAGVFP | 0.689 ± 0.17
PPAPPPPLPPPP | 0.64 ± 0.017
GSCPPHPALPHL | 0.713 ± 0.048
KEKKNNRQRKER | 0.642 ± 0.016
PPPPPTPLPSTL | 0.727 ± 0.038
SGKFVGCSFWMG | 0.62 ± 0.016
GGGVGVPDSASE | 0.681 ± 0.047
LWLLVAPGPPAQ | 0.682 ± 0.027
FSRSGIRLLGVA | 0.59 ± 0.021
LRFDGKASHSST | 0.6813 ± 0.0014
LGGHLFPLGPRR | 0.664 ± 0.007
YPSDLRPPSSPI | 0.7512 ± 0.0041
IGSFTRTTKKFK | 0.723 ± 0.0073
FSSPLSSPSPLY | 0.6834 ± 0.0059
PLPGLLHCPTSP | 0.717 ± 0.12
RVFDPSRSTVVE | 0.774 ± 0.018
PQSPVCDLESRL | 0.666 ± 0.11
GKRKGETGNRGG | 0.741 ± 0.19
AVAYMAHLPITR | 0.69 ± 0.019
FSNSSASPPSLS | 0.664 ± 0.068
FSPDSDFTRCAP | 0.701 ± 0.002
ESFFHIKPVLYI | 0.647 ± 0.058

Sequence | protein stability index
GRSAVRADFPFF | 0.703 ± 0.16
VGVSEVGRGWAT | 0.71 ± 0.062
HWCQKNKFKAIS | 0.669 ± 0.033
SGGCDNGRMRWV | 0.682 ± 0.07
GWCTLASGLFTT | 0.673 ± 0.1
DYLGGGARSEVD | 0.745 ± 0.029
ELGGRGPGGWVG | 0.7149 ± 0.0041
RRGWVRWRVGAA | 0.667 ± 0.074
SWKEAIVAISGS | 0.612 ± 0.058
WVSWGCCSFLLT | 0.616 ± 0.0092
VVGRLERRLREQ | 0.674 ± 0.017
HYSLSHLRIVLD | 0.645 ± 0.011
PHRACSSRPLGP | 0.718 ± 0.049
LRGGWVESCGGW | 0.669 ± 0.027
PNVPVPTPPPGI | 0.729 ± 0.061
LLRLPPPSPRYH | 0.782 ± 0.019
QSILVCELGMEG | 0.67 ± 0.051
CGAVDTETWWGG | 0.642 ± 0.024
EVSGGNRYWCGV | 0.719 ± 0.022
APPPPPALPEYQ | 0.685 ± 0.047
LLGASIIGQFYL | 0.758 ± 0.011
GLSCESLRLFFR | 0.702 ± 0.015
IFWGFSFRGGGC | 0.656 ± 0.029
STTILIKKKNDK | 0.684 ± 0.041
KRKPEHKSAAEE | 0.669 ± 0.038
LLSRCAGLMWSF | 0.679 ± 0.0098

Sequence | protein stability index
PFSPDVSSVVFL | 0.667 ± 0.032
SYLRGPIVTGFG | 0.712 ± 0.077
GEAFLVRRSRNR | 0.722 ± 0.082
IMVLKAAVSKQE | 0.69 ± 0.09
TPMGFSRFLLSL | 0.553 ± 0.03
IGLPCSSGCCCH | 0.702 ± 0.088
FLWLRLLEAFWF | 0.603 ± 0.032
SSPSPCSRPLLL | 0.7112 ± 0.0011
VGGAAVVAGGGV | 0.695 ± 0.031
RKMNEEKEIRRQ | 0.6569 ± 0.0065
PSPPPAIFPFVS | 0.71 ± 0.059
GNGRGKKEGPKN | 0.657 ± 0.01
YQSHFERSGVAR | 0.674 ± 0.077
PLPSPPVPPPPP | 0.6796 ± 0.0043
GYRRTGGLHGVV | 0.716 ± 0.034
RGVGCLIITHSL | 0.608 ± 0.073
RAVFFLQAHCSL | 0.674 ± 0.0072
RKSSLVARTGMI | 0.623 ± 0.071
IGKLDYVCWRVL | 0.602 ± 0.029
EYAVLLFPHHPG | 0.623 ± 0.041
HPSGLFSFVCLS | 0.567 ± 0.0057
FGYSGCVAKTGL | 0.658 ± 0.049
KKKNKKNKKKAE | 0.6915 ± 0.0047
SLLQSLPSPPPP | 0.639 ± 0.011
PHPLLPGRSSPP | 0.677 ± 0.061
RLPGLTHFLPKI | 0.654 ± 0.038

Sequence | protein stability index
GGLLGRLWDGGA | 0.723 ± 0.04
FFCLVPLALPRF | 0.649 ± 0.019
PMPGRSEREYQV | 0.711 ± 0.087
STSPFPAPRRAL | 0.775 ± 0.052
FLGGSRVGRGDG | 0.6943 ± 0.0053
ASTSPSASSSPP | 0.727 ± 0.024
ARFSPTLQLTPT | 0.844 ± 0.13
LCHCLSLLFSFL | 0.581 ± 0.015
SCITFGGWLGGM | 0.709 ± 0.13
GVLVAFLWGESV | 0.593 ± 0.018
TRPCFSGFNSPF | 0.6545 ± 0.0019
KCKGTCESRRGI | 0.833 ± 0.034
RIGEHGWLTGYI | 0.736 ± 0.012
LLRPPARPPHPR | 0.746 ± 0.008
RKSIGTAYRMPR | 0.755 ± 0.081
AGGGPDGFIRPM | 0.701 ± 0.014
RGVPPPCPLLAA | 0.599 ± 0.077
ANGTLSGSPAPS | 0.641 ± 0.021
QWIINVSRSIRK | 0.654 ± 0.031
PTPHHPPPHPGP | 0.726 ± 0.042
GRGLVSWEAGGV | 0.716 ± 0.018
PSPALPVHPPLQ | 0.687 ± 0.011
AKWAWPAIVGGC | 0.722 ± 0.053
SKNQQKKCQMIT | 0.534 ± 0.038
LHPGPPASPPPL | 0.7127 ± 0.0053
AGRVCTRGVNEI | 0.786 ± 0.1

Sequence | protein stability index
PPAVPSTPLSPP | 0.685 ± 0.032
PLHDGRFANDSF | 0.674 ± 0.043
KVCVLSPDSCGL | 0.741 ± 0.033
TRNRKEWKIVIL | 0.594 ± 0.042
LRCSVKQNLGIV | 0.655 ± 0.045
PPPPPPPPHSPP | 0.672 ± 0.035
SPRLSGVPGHAP | 0.663 ± 0.027
PPLLPRPPPLSP | 0.6677 ± 0.0037
PPSSPCLRPSPP | 0.683 ± 0.037
AIERCCTSRRRR | 0.701 ± 0.041
NEQPSKLLAKEC | 0.866 ± 0.13
NELRTFLGDRDI | 0.675 ± 0.043
CWRDTSSPSVLD | 0.682 ± 0.041
LNTTKTFCSPCL | 0.692 ± 0.081
TPPPPPPPLRAT | 0.638 ± 0.038
PPSSSPPHTPFP | 0.6557 ± 0.0011
FCSRVGFVFLRL | 0.489 ± 0.024
PLPPCCLPPSAF | 0.6857 ± 0.0061
AGALFRLPSVFD | 0.727 ± 0.076
GLGTRLSAVVLS | 0.625 ± 0.039
DGKLNTASIEKV | 0.684 ± 0.036
PPLPPPPHPPFP | 0.683 ± 0.07
GENVVPGLHTQV | 0.675 ± 0.064
RWGGGKWWRGAE | 0.659 ± 0.018
DQIWHPATRIMC | 0.638 ± 0.071
FARELGNLNVEK | 0.761 ± 0.056

Sequence | protein stability index
RIAPSLPPSSFL | 0.688 ± 0.0095
TGEFILLFSWFV | 0.584 ± 0.0024
TARIIAHPQTRI | 0.661 ± 0.032
FHSSDLCGPVTS | 0.67 ± 0.025
RKSCKRNERIRK | 0.669 ± 0.035
WGTSGAMRGTEG | 0.683 ± 0.022
ASYGHCTTCRRT | 0.717 ± 0.021
RVCFVTNLVDVT | 0.721 ± 0.096
KKTTKRKKEKQK | 0.633 ± 0.07
APVRSSIALKSD | 0.703 ± 0.035
SLPDTSPSLHPP | 0.59 ± 0.011
EMPQNSKKNQAA | 0.672 ± 0.06
HILDDHVRISNA | 0.685 ± 0.0096
WGWVLVGVGGLV | 0.576 ± 0.091
PHPPHLRPLCPR | 0.719 ± 0.029
PSDLFGIQQSLL | 0.764 ± 0.018
FTERVVEKFVLY | 0.633 ± 0.01
DPSQRRPDCCTY | 0.729 ± 0.039
KQKNSNKKTQRI | 0.712 ± 0.021
ARIALGLSALVL | 0.641 ± 0.05
LFCVARARLGCW | 0.768 ± 0.026
SNQKGQIYYEPS | 0.706 ± 0.08
ISFGSKLPHHLP | 0.657 ± 0.11
MVGAWCAGIPGI | 0.668 ± 0.0022
APIRPPVPPASP | 0.716 ± 0.035
CPGPPSLSPRPS | 0.672 ± 0.029

Sequence | protein stability index
PSGGAVEGMGGE | 0.668 ± 0.059
SQSFFDGVLVRV | 0.673 ± 0.059
KKKKRKKKKINI | 0.611 ± 0.038
WVPLGPFCLPLF | 0.724 ± 0.1
GGAAAWAERCGG | 0.726 ± 0.0097
FSGRRGCFSSYI | 0.653 ± 0.037
AVLGWAGGGWAG | 0.694 ± 0.11
GSWLGVGDRLVC | 0.717 ± 0.17
PWVNLFPCQINI | 0.639 ± 0.02
GISKHGAITSRI | 0.725 ± 0.0033
RHYGVTSLISLQ | 0.674 ± 0.01
GLCVGVGLVWKL | 0.65 ± 0.07
PPVSHPSPFPLP | 0.653 ± 0.0095
LGVSYAPLPFLS | 0.65 ± 0.03
GFVPRSFNTLTS | 0.664 ± 0.053
ALFPPPSLRPLP | 0.724 ± 0.054
LPPPRPTRSPTH | 0.617 ± 0.034
ERNKQNVTQKVK | 0.723 ± 0.028
APPLQLSSPPPS | 0.746 ± 0.051
SYRHHPTVPSTY | 0.705 ± 0.057
IRFCILRRLGRH | 0.588 ± 0.028
WGPVPWWFGWMG | 0.678 ± 0.027
RRRKPAEHTPPW | 0.755 ± 0.1
APPPPPSRLFPP | 0.672 ± 0.028
PSFFLLRVFVPS | 0.524 ± 0.0061
HLFVPGAFFFFS | 0.718 ± 0.073

Sequence | protein stability index
APSRTPRQPPSH | 0.716 ± 0.067
QDAPPSTPPRPL | 0.786 ± 0.15
KREGEGLDWGEV | 0.7089 ± 0.0014
GCTNSCGRHVKG | 0.6426 ± 0.006
GTGRRRGWGVMG | 0.664 ± 0.026
SSGTLSPLSPVP | 0.655 ± 0.027
GSVMGVGLEKKI | 0.732 ± 0.052
EGLCFLICKERS | 0.729 ± 0.025
PPPPLAVSPTSP | 0.716 ± 0.039
FVLISSPLLRSF | 0.623 ± 0.017
IKLVVLGPLVWF | 0.625 ± 0.018
WGGYSLKFRTRR | 0.705 ± 0.0025
ECIKVRGQWREI | 0.662 ± 0.011
FSSFVVVGCWPR | 0.625 ± 0.027
CISGRGIYAKAF | 0.699 ± 0.043
RPMKGLSMGSCA | 0.66 ± 0.011
PPFVPFLLIFPP | 0.611 ± 0.042
LVGPPDPAHAVH | 0.718 ± 0.031
CRPTGSSTRFQL | 0.718 ± 0.01
LPVPPPHPPCPL | 0.6497 ± 0.0036

Reference: the supplement of paper PMC10724198
